Reference: US20220332836A1, “A METHOD FOR PREVENTING HUMAN VIRUS ASSOCIATED DISORDERS IN PATIENTS” (NOVARTIS AG, priority 2019, published 2022)

Key:
[1] = system: platelet aggregation
[2] = system: NK cell-depleted PBMC cultures; test: EBV regression assay, complete or NK cell-depleted PBMC; type: cell-based, human; conditions: 14 days
Text: (§1) FIG. 16 provides CD3^+ T cell counts from the NK cell-depleted PBMC regression assay after 14 days of culture measured by flow cytometry. Antibodies (in μg/mL) and CsA (in μM) were given in combination with EBV supernatants (except the negative control=medium w/o EBV). Dotted horizontal line was set to the condition ‘medium+EBV’. Data are shown as mean+SEM (n=4).
as §1, with “17” for “16”, “CD19^+ B cell counts from the PBMC regression assay after 14 days of culture measured by flow cytometry. Antibodies (in μg/mL) and CsA (in μM) were given in combination with EBV supernatants (except the negative control=medium w/o EBV). Dotted horizontal line was set to the condition ‘medium+EBV’. Data are shown as mean+SEM (n=4); and CD19^+ B” for “CD3^+ T”
All conditions except ‘medium w/o EBV’ were incubated with EBV supernatant and respective compound or antibodies. […] Looking at the CD19+ B cell proliferation (FIG. 3), there was an obvious increase in CD19+ B cell counts when PBMC were incubated with EBV supernatant compared to PBMC cultured with medium only (medium w/o EBV). […]

[3] = target: T1, CD40 (Macaca mulatta, UniProt A0ACM8QRX8); test: KLH / tetanus toxoid immunization in rhesus monkeys; type: in vivo
T1 construct: CD40 occupancy by mAb1 at plasma concentrations >40 μg/mL; endogenous in cells; host or cells: rhesus monkeys (in vivo)
T1 sequence (A0ACM8QRX8 21-278): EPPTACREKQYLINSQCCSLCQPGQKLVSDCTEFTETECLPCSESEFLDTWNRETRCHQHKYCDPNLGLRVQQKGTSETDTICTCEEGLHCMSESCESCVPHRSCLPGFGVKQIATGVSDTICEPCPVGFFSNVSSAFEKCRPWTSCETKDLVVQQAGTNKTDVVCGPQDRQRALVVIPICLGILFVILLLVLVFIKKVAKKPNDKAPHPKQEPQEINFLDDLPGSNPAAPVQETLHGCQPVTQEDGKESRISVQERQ
Experimental: In a PK/PD study in cynomolgus monkeys, the inflection point (about 10 μg/mL) in the PK profiles was associated with a drop of CD40 saturation, as determined in an independent lymphocyte target saturation assay. As such this inflection point is viewed as a marker for the level of saturation of CD40, and an evidence for target engagement. […] Monkeys were immunized with KLH three times (the first was about 3 weeks prior to dosing, the second was 2 weeks after mAb1 administration, and the third was after complete wash-out of mAb1). […]

[4] = system: antibody-dependent cellular cytotoxicity or complement-dependent cytotoxicity; test: ADCC / CDC mediation; type: cell-based
Experimental: Currently, CFZ533/Iscalimab is in clinical development for inhibition of transplant organ rejection and therapy for autoimmune diseases.
mAb1 binds to human CD40 with high affinity (Kd of 0.3 nM).

[5] = 13-week GLP rhesus monkey toxicity study; type: in vivo
Experimental: Inflammatory lesions in the kidneys and lungs of 2 animals at 50 mg/kg were noted, and in one of the two animals, lesions in the eyes and trachea were also noted. […] In view of these inflammatory findings, the No Observed Adverse Effect Level (NOAEL) for the 13-week toxicity study was set at 10 mg/kg. […] The NOAEL derived from the 26-week cynomolgus monkey study is considered the most relevant for supporting the clinical dosing regimen.
Adequate safety margin from preclinical toxicological studies: GLP toxicology studies to date have tested CFZ533 at (i) weekly s.c. dosing for 13 weeks at 10, 50, and 150 mg/kg (s.c. and i.v.) in rhesus monkeys, and (ii) weekly s.c. dosing for 26 weeks at 1, 50, and 150 mg/kg in cynomolgus monkeys.

[6] = system: EBV infections; test: Clinical kidney transplantation data; type: in vivo, human; conditions: CNI-free therapy in kidney transplantation
[7] = in vivo
[8] = system: Fcγ receptors (including CD16); test: Fcγ receptor binding
[9] = system: T cell-dependent antibody responses (TDAR); test: In vivo T cell-dependent antibody responses and germinal centers
[10] = system: PBMC incubated with EBV supernatant; test: EBV regression assay with PBMC; type: cell-based, human
Experimental: Buffy coats from six healthy volunteers (18-001 to 18-006) were received from Blutspendezentrum Bern. Peripheral blood mononuclear cells (PBMC) were isolated using LeucoSep tubes following manufacturer's instructions, counted with TC20 and adjusted in cell culture medium (Medium, buffers and reagents). All conditions (see Table 3-2) were run in five replicates in 96-well U-bottom plates and contained 2×10^5 cells/well. PBMC were incubated for 10-15 minutes at 37° C. before adding cell culture medium containing EBV-supernatant and transferrin (see Medium, buffers and reagents). […] Cell pellets were stained and analyzed by flow cytometry (FACS staining procedure).
In FIG. 1, the gating strategy is shown.

[11] = target: T2, CD40 (Homo sapiens, UniProt P25942); test: CD40 receptor occupancy and CD154-induced CD69 expression in human whole blood cultures; type: cell-based; conditions: CD20 positive B cells
T2 construct: CD40 occupancy on peripheral B cells measuring free CD40 and total CD40; endogenous in cells; host or cells: peripheral / whole blood B cells of healthy subjects and rheumatoid arthritis patients (in vivo)
T2 sequence (P25942 21-277): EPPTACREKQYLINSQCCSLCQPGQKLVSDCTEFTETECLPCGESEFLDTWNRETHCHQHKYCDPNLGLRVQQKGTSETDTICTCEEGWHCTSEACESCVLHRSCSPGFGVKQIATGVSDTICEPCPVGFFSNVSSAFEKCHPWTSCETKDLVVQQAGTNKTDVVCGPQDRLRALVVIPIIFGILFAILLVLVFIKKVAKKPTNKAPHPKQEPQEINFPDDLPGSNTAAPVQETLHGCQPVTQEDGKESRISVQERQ
Text: In addition, mAb1 can disrupt established germinal centers (GCs) in vivo. The CD40 receptor occupancy and functional activity were simultaneously assessed in vitro using human whole blood cultures. Functional activity was quantified via CD154-induced expression of CD69 (the activation marker) on CD20 positive cells (B cells) and CD40 occupancy was monitored using fluorescently labeled mAb1.

[12] = system: kidney allografts; conditions: cited from earlier work
[13] = 14 days, CsA 0.1, 1 μM, Belatacept 10, 50 μg/mL, CFZ533, hIgG1 10-200 μg/mL, vs medium+EBV

## CFZ533: fully human monoclonal Fc-silent, non-depleting anti-CD40 antibody (IgG1/K); heavy chain SEQ ID NO: 9, light chain SEQ ID NO: 10
[1]
  effect on platelet aggregation: mild inhibitory effects
  induction of platelet aggregation responses: does not induce
[2]
  CD19+ B cell counts: decrease in CD19+ B cell counts compared to isotype control independently of NK cells
[3]; at the time of the second KLH vaccination
  plasma concentration at which CD40 occupancy completely prevented recall antibody responses: > 40 µg/mL
[3]; once mAb1 was cleared
  response to the third KLH: full memory antibody response
[4]; listed as CFZ533/Iscalimab
  mediation of ADCC or CDC: incapable of mediating
[4]; listed as mAb1
  mediation of ADCC or CDC: does not
[5]; 13-week toxicity study
  No Observed Adverse Effect Level (NOAEL): 10 mg/kg
[5]; weekly dosing 13 weeks at 10, 50, 150 mg/kg
  major toxicology findings: did not reveal any major finding
[6]
  increased incidence of EBV infections: not observed
[7]
  inflection point of non-linear serum concentration-time profiles: 10 to 20 µg/mL
[8]
  binding to Fcγ receptors (including CD16): does not bind
[9]
  established germinal centers (GCs): can disrupt
  primary and secondary T cell-dependent antibody responses (TDAR): blocks
[10]
  EBV control in vitro: does not impair
[10]; [13]
  CD3+ T cell counts: did not had any effect
  CD19+ B cell counts: decrease
[11]
  CD40 occupancy required for full inhibition of rCD154-induced CD69 expression: Almost complete
[12]; in vivo
  peripheral B cell depletion: no significant peripheral B cell depletion
[12]; non-human primates
  survival of kidney allografts: can prolong survival
